Patent publication US20080113421A1, “Stabilizing proteins against denaturation and inactivation by charged detergents using chemical modifications, including modifications that increase net charge” (President and Fellows of Harvard College, priority 2006, published 2008)

How the values were obtained:
[1] = Refolding of SDS-denatured protein by dilution or removal of SDS, monitored by DNSA fluorescence; assay type: physicochemical
Protocol: Monitoring refolding of BCA and BCA-Ac18 was performed as follows. The proteins (10 micomolar) were denatured in 10 mM SDS for 24 h. […] Refolding was initiated by dilution of an aliquot of the denatured sample to a final concentration of protein of 200 nM, with varying concentrations of SDS in the buffer. Immediately prior to the measurement, an aliquot of renaturing protein was mixed with an equal aliquot of DNSA. The rate constants for renaturation were determined by fitting the data to FU=FUmax(1-e^−kt)+FUmin. The refolding experiments at 37° C. were performed similarly.
The kinetics of refolding were determined as follows. The rates of refolding of BCA and BCA-Ac18 from the fully denatured states (in 10 mM SDS) were measured by dilution of the solutions into buffers containing concentrations of SDS from 0.1 to 2 mM, using the fluorescence of DNSA as a marker for the appearance of the folded state. […] As in denaturation studies, an aliquot of solution of the protein and SDS was mixed with an equal aliquot of solution of DNSA with the same amount of SDS immediately prior to the measurement to eliminate the possibility of DNSA influencing refolding kinetics. The buffer also contained 100 micromolar ZnSO4 to ensure that the folded protein could incorporate a Zn(II) cofactor.
The raw data emphasize the decrease in the yield of folded protein with increasing concentration of SDS. […] The half-lives (t1/2) for renaturation were determined, where possible, by fitting the data to FU=FUmax(1-exp(−t/t1/2))+FUmin; the fits are shown (solid lines). The tables provide data for refolding in 0.1 and 0.4 mM SDS as well as for concentrations on the graphs for comparison. […] The error bars represent the difference between the average and the largest and smallest values measured from at least three replicate measurements.

[2] = Denaturation of BCA charge ladders in 3 mM SDS (dialysis cassette) followed by capillary electrophoresis, with transition-state model fit; assay type: physicochemical
Protocol: Denaturation experiments were performed as follows. A charge ladder of BCA (BCA-Acn or BCA-Hexn, 1 mL of 100 micromolar total protein in Tris-Gly buffer) was placed in a dialysis cassette (MW cutoff of 10 kDa). The dialysis cassette was placed in a 1 L bath of 3 mM SDS in Tris-Gly buffer at room temperature. The buffer was changed every 24 h. At regular intervals of time (approximately every half-hour), 100 microliters of the protein solution was removed from the dialysis cassette; ˜7 microliters of that aliquot was diluted 10-fold and the absorbance of the diluted sample at 280 nm (ε280,BcA=57,000 M^−1 cm^−1, the absorption cross section can be assumed to be is unchanged by acylation) was measured to determine the total protein concentration. The aliquot was diluted because the absorbance of the 100 micromolar solution was too high to be read accurately by the ultraviolet spectrometer. This diluted aliquot was discarded. The remainder of the solution was then run on CE. The protein solution, except for the portion diluted for ultraviolet measurement, was returned to the dialysis cassette; the aliquot was outside of the dialysis cassette for ˜5 min.
Capillary electrophoresis experiments were carried out in a Beckman (Fullerton, Calif.) PACE-MDQ system, using a capillary of inner diameter of 50 micrometers of total length of 110.2 cm, 100 cm to the detector. Tris-Gly in D2O was used as the running buffer, and the applied voltage was 30 kV. D2O was used in place of H2O for the electrophoresis buffer because the viscosity of D2O is higher than that of H2O and the higher viscosity minimizes diffusion. Samples were injected using pressure (20 psi) for 30 s. Each sample contained 0.65 mM dimethylformamide as an electrically neutral marker for electroosmotic flow.
The CMC of SDS in the Tris-Gly buffer used in this example was 4.3 mM. 3 mM SDS was chosen for these experiments because this concentration of SDS denatured BCA in an interval of time that was convenient for experimental work using CE. In addition, this concentration of SDS was close to the concentration often used in SDS-PAGE (0.1% or 3.5 mM). 1 mL of a solution of ˜100 micromolar of a charge ladder of BCA, dissolved in Tris-Gly buffer, was placed into a dialysis cassette (molecular weight cutoff of 10 kDa) and the cassette placed in 1 L of Tris-Gly buffer containing 3 mM SDS. The bath was kept at room temperature (˜22° C.) for the duration of the experiment.
At regular intervals of time (approximately every half hour), 100-microliter aliquots of the solutions containing the charge ladder of BCA were removed from the cassette in a bath of 3 mM SDS in Tris-Gly buffer, the total protein concentration in the aliquot was measured using absorbance at 280 nm, and a portion (˜10 nL) of the aliquot injected onto the CE. The unused portions of the aliquots were then returned to the cassette.
Residence time in the detection volume was determined as follows. […] If two proteins with the same absorptivity were present in a sample in equal concentrations, the protein of lower velocity would have a larger measured peak area than the protein of higher velocity. To correct for this experimental bias, the area of each peak was multiplied-by the velocity of the protein (Acorr=Ameasured×LD/tD), where LD is the length of the capillary from the end (where injection occurs) to the detector (100 cm in all of these experiments) and tD is the time it takes for the rung to reach the detector.
Initial differences in concentrations of each rung were as follows. The areas of each of the rungs in the charge ladder were not all equal before denaturation. To measure the fraction of each rung that has denatured at each time, the velocity-corrected area of each rung in the sample was divided by the velocity-corrected area of that rung in the charge ladder run in the absence of SDS.
A comparison of the rates of denaturation follows. […]

[3] = from solutions of GuHCl; cited from earlier work

bovine carbonic anhydrase II [BCA]
concentration of SDS at which no refolded protein was observed ([1]; dilution from 10 mM SDS): ≥ 800 µM
range of SDS concentrations in which protein neither refolds nor unfolds at an observable rate (window) ([1]; time scales of a month): 0.8 to 2 mM
refolding rate (given as time) after denaturation with SDS ([1]; upon complete removal of the SDS): 11 ± 1 min
ΔG‡ of denaturation (a coefficient) ([2]; 3 mM SDS, room temperature, assumes νκTST=10^6 s^−1): 14 ± 1 kcal/mol
radius of the transition state RTS ([2]; model, assuming a radius of BCA of 2 nm): 2.1 nm
time constant of rate-limiting step in folding [3]: ~10 min
